B1: PTPRD (parent)
chain: FICQATGDPRPKIVWNKKGKKVSN

Variants of: B1
Experiment: protein stability index of a GFP-peptide fusion (GPS, HEK-293T) (PSI 1-6); higher = more stable
Details: c terminus: a fixed tail appended
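Note: lentivirally expressed fusions sorted by FACS into six bins by GFP to DsRed ratio, PSI derived from sequencing read proportions per bin multiplied by bin number.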

Compared with FICQATGDPRPKIVWNIKGKKVSN, FICQATGDPRPKIVWNNKGKKVSN is higher in protein stability index: 1.31 for the first, 2.31 for the second.

Compared with FICQATGDPRPKIVWNMKGKKVSN, FICQATGDPRPKIVWNWKGKKVSN is higher in protein stability index: 1.78 for the first, 2.78 for the second.

Compared with FICQATGDPRPKIVWNSKGKKVSN, FICQATGDPRPKIVWNGKGKKVSN is lower in protein stability index: 1.79 for the first, 1.77 for the second.

Compared with FICQATGDPRPKIVWNDKGKKVSN, FICQATGDPRPKIVWNCKGKKVSN is higher in protein stability index: 1.74 for the first, 1.92 for the second.

Compared with FICQATGDPRPKIVWNVKGKKVSN, FICQATGDPRPKIVWNYKGKKVSN is lower in protein stability index: 1.9 for the first, 1.68 for the second.

First: FICQATGDPRPKIVWNAKGKKVSN
Second: FICQATGDPRPKIVWNRKGKKVSN
The protein stability index of the first is lower: 1.37 for the first, 2.21 for the second.

First: FICQATGDPRPKIVWNEKGKKVSN
Second: FICQATGDPRPKIVWNFKGKKVSN
The protein stability index of the first is lower: 1.34 for the first, 1.56 for the second.

First: FICQATGDPRPKIVWNHKGKKVSN
Second: FICQATGDPRPKIVWNPKGKKVSN
The protein stability index of the first is lower: 1.96 for the first, 2.81 for the second.

First: FICQATGDPRPKIVWNLKGKKVSN
Second: FICQATGDPRPKIVWNTKGKKVSN
The protein stability index of the first is higher: 1.78 for the first, 1.55 for the second.

Compared with FICQATGDPRPKIVWNQKGKKVSN, FICQATGDPRPKIVWNKKGKIVSN is higher in protein stability index: 1.84 for the first, 2.2 for the second.

Going from FICQATGDPRPKIVWNKKGKDVSN to FICQATGDPRPKIVWNKKGKTVSN, the protein stability index rises from 1.99 to 2.45.

First: FICQATGDPRPKIVWNKKGKMVSN
Second: FICQATGDPRPKIVWNKKGKQVSN
The protein stability index of the first is higher: 2.03 for the first, 1.77 for the second.

Compared with FICQATGDPRPKIVWNKKGKFVSN, FICQATGDPRPKIVWNKKGKWVSN is higher in protein stability index: 1.61 for the first, 1.72 for the second.

Going from FICQATGDPRPKIVWNKKGKHVSN to FICQATGDPRPKIVWNKKGKAVSN, the protein stability index rises from 1.95 to 2.52.

First: FICQATGDPRPKIVWNKKGKSVSN
Second: FICQATGDPRPKIVWNKKGKYVSN
The protein stability index of the first is higher: 2.28 for the first, 1.49 for the second.

Going from FICQATGDPRPKIVWNKKGKVVSN to FICQATGDPRPKIVWNKKGKCVSN, the protein stability index rises from 1.9 to 2.26.

Going from FICQATGDPRPKIVWNKKGKNVSN to FICQATGDPRPKIVWNKKGKRVSN, the protein stability index rises from 2.17 to 2.49.

Going from FICQATGDPRPKIVWNKKGKLVSN to FICQATGDPRPKIVWNKKGKPVSN, the protein stability index falls from 2.9 to 2.18.

Compared with FICQATGDPRPKIVWNKKGKEVSN, FICQATGDPRPKIVWNKKGKGVSN is lower in protein stability index: 2.25 for the first, 1.9 for the second.

Compared with FICQATGDPRPKIIWNKKGKKVSN, FICQATGDPRPKIYWNKKGKKVSN is lower in protein stability index: 2.23 for the first, 1.59 for the second.

First: FICQATGDPRPKIWWNKKGKKVSN
Second: FICQATGDPRPKIPWNKKGKKVSN
The protein stability index of the first is lower: 2.18 for the first, 2.21 for the second.

Compared with FICQATGDPRPKIRWNKKGKKVSN, FICQATGDPRPKIKWNKKGKKVSN is higher in protein stability index: 1.78 for the first, 2.4 for the second.

First: FICQATGDPRPKITWNKKGKKVSN
Second: FICQATGDPRPKIGWNKKGKKVSN
The protein stability index of the first is higher: 2.5 for the first, 2 for the second.

First: FICQATGDPRPKIQWNKKGKKVSN
Second: FICQATGDPRPKIHWNKKGKKVSN
The protein stability index of the first is lower: 2.01 for the first, 2.27 for the second.

First: FICQATGDPRPKINWNKKGKKVSN
Second: FICQATGDPRPKISWNKKGKKVSN
The protein stability index of the first is lower: 1.73 for the first, 2.27 for the second.

Going from FICQATGDPRPKIMWNKKGKKVSN to FICQATGDPRPKIVWNKKGRKVSN, the protein stability index rises from 1.67 to 2.39.

First: FICQATGDPRPKIVWNKKGTKVSN
Second: FICQATGDPRPKIVWNKKGVKVSN
The protein stability index of the first is higher: 1.69 for the first, 1.44 for the second.

Going from FICQATGDPRPKIVWNKKGGKVSN to FICQATGDPRPKIVWNKKGQKVSN, the protein stability index rises from 1.79 to 2.56.

Compared with FICQATGDPRPKIVWNKKGIKVSN, FICQATGDPRPKIVWNKKGDKVSN is lower in protein stability index: 1.88 for the first, 1.64 for the second.

Compared with FICQATGDPRPKIVWNKKGCKVSN, FICQATGDPRPKIVWNKKGMKVSN is higher in protein stability index: 1.17 for the first, 1.8 for the second.

First: FICQATGDPRPKIVWNKKGAKVSN
Second: FICQATGDPRPKIVWNKKGEKVSN
The protein stability index of the first is higher: 1.82 for the first, 1.78 for the second.

First: FICQATGDPRPKIVWNKKGLKVSN
Second: FICQATGDPRPKIVWNKKGSKVSN
The protein stability index of the first is higher: 1.96 for the first, 1.94 for the second.

First: FICQATGDPRPKIVWNKKGHKVSN
Second: FICQATGDPRPKIVWNKKGNKVSN
The protein stability index of the first is higher: 2.71 for the first, 1.77 for the second.

Compared with FICQATGDPRPKIVWNKKGWKVSN, FICQATGDPRPKIVWNKKGPKVSN is higher in protein stability index: 1.76 for the first, 2 for the second.

Compared with FICQATGDPRPKIVWNKKGYKVSN, FICQATGDPRPKIVWFKKGKKVSN is higher in protein stability index: 1.48 for the first, 2.04 for the second.

Going from FICQATGDPRPKIVWYKKGKKVSN to FICQATGDPRPKIVWIKKGKKVSN, the protein stability index rises from 1.89 to 1.99.

Going from FICQATGDPRPKIVWPKKGKKVSN to FICQATGDPRPKIVWEKKGKKVSN, the protein stability index rises from 1.75 to 2.75.

Going from FICQATGDPRPKIVWWKKGKKVSN to FICQATGDPRPKIVWSKKGKKVSN, the protein stability index rises from 1.48 to 2.24.

First: FICQATGDPRPKIVWCKKGKKVSN
Second: FICQATGDPRPKIVWTKKGKKVSN
The protein stability index of the first is lower: 1.73 for the first, 1.91 for the second.

Going from FICQATGDPRPKIVWRKKGKKVSN to FICQATGDPRPKIVWDKKGKKVSN, the protein stability index rises from 1.96 to 2.45.

First: FICQATGDPRPKIVWAKKGKKVSN
Second: FICQATGDPRPKIVWVKKGKKVSN
The protein stability index of the first is higher: 1.72 for the first, 1.37 for the second.

Going from FICQATGDPRPKIVWMKKGKKVSN to FICQATGDPRPKIVWKKKGKKVSN, the protein stability index rises from 1.74 to 2.25.

Compared with FICQATGDPRPKIVWGKKGKKVSN, FICQATGDPRPKIVWHKKGKKVSN is higher in protein stability index: 1.05 for the first, 1.74 for the second.

First: FICQATGDPRPKIVWLKKGKKVSN
Second: FICQATGDPRPKIVWQKKGKKVSN
The protein stability index of the first is lower: 1.91 for the first, 2.56 for the second.

First: FICQATGDPRPKIVWNKKGKKVEN
Second: FICQATGDPRPKIVWNKKGKKVFN
The protein stability index of the first is higher: 2.72 for the first, 2.31 for the second.

First: FICQATGDPRPKIVWNKKGKKVHN
Second: FICQATGDPRPKIVWNKKGKKVVN
The protein stability index of the first is lower: 2.37 for the first, 2.4 for the second.

Compared with FICQATGDPRPKIVWNKKGKKVWN, FICQATGDPRPKIVWNKKGKKVNN is lower in protein stability index: 2.28 for the first, 2.12 for the second.

Source: the supplement of paper PMC10567573
